# In IntAct's records for PubMed 18423204:
# B1: Catenin beta-1 (Mus musculus), Q02248 (parent)
# chain: MATQADLMELDMAMEPDRKAAVSHWQQQSYLDSGIHSGATTTAPSLSGKGNPEEEDVDTSQVLYEWEQGFSQSFTQEQVADIDGQYAMTRAQRVRAAMFPETLDEGMQIPSTQFDAAHPTNVQRLAEPSQMLKHAVVNLINYQDDAELATRAIPELTKLLNDEDQVVVNKAAVMVHQLSKKEASRHAIMRSPQMVSAIVRTMQNTNDVETARCTAGTLHNLSHHREGLLAIFKSGGIPALVKMLGSPVDSVLFYAITTLHNLLLHQEGAKMAVRLAGGLQKMVALLNKTNVKFLAITTDCLQILAYGNQESKLIILASGGPQALVNIMRTYTYEKLLWTTSRVLKVLSVCSSNKPAIVEAGGMQALGLHLTDPSQRLVQNCLWTLRNLSDAATKQEGMEGLLGTLVQLLGSDDINVVTCAAGILSNLTCNNYKNKMMVCQVGGIEALVRTVLRAGDREDITEPAICALRHLTSRHQEAEMAQNAVRLHYGLPVVVKLLHPPSHWPLIKATVGLIRNLALCPANHAPLREQGAIPRLVQLLVRAHQDTQRRTSMGGTQQQFVEGVRMEEIVEGCTGALHILARDVHNRIVIRGLNTIPLFVQLLYSPIENIQRVAAGVLCELAQDKEAAEAIEAEGATAPLTELLHSRNEGVATYAAAVLFRMSEDKPQDYKKRLSVELTSSLFRTEPMAWNETADLGLDIGAQGEALGYRQDDPSYRSFHSGGYGQDALGMDPMMEHEMGGHHPGADYPVDGLPDLGHAQDLMDGLPPGDSNQLAWFDTDL
# Variants of: B1
# Details: with MAPK9, P45984-1
row,Variant,effect of a mutation on the interaction
1,S191A,disrupting interaction
2,S191A;S246A;S605A,disrupting interaction
3,S605A,decreasing interaction
4,S246A,decreasing interaction
